B1: Vesicle-associated membrane protein 7 (Mus musculus), P70280 (parent)
chain: MAILFAVVARGTTILAKHAWCGGNFLEVTEQILAKIPSENNKLTYSHGNYLFHYICQDRIVYLCITDDDFERSRAFSFLNEVKKRFQTTYGSRAQTALPYAMNSEFSSVLAAQLKHHSENKSLDKVMETQAQVDELKGIMVRNIDLVAQRGERLELLIDKTENLVDSSVTFKTTSRNLARAMCMKNIKLTIIIIIVSIVFIYIIVSLLCGGFTWPNCVKK

Variants of: B1
Settings: with anr27_human ANKRD27, Q96NW4
Chain of anr27_human ANKRD27, Q96NW4 (Q96NW4 whole entry): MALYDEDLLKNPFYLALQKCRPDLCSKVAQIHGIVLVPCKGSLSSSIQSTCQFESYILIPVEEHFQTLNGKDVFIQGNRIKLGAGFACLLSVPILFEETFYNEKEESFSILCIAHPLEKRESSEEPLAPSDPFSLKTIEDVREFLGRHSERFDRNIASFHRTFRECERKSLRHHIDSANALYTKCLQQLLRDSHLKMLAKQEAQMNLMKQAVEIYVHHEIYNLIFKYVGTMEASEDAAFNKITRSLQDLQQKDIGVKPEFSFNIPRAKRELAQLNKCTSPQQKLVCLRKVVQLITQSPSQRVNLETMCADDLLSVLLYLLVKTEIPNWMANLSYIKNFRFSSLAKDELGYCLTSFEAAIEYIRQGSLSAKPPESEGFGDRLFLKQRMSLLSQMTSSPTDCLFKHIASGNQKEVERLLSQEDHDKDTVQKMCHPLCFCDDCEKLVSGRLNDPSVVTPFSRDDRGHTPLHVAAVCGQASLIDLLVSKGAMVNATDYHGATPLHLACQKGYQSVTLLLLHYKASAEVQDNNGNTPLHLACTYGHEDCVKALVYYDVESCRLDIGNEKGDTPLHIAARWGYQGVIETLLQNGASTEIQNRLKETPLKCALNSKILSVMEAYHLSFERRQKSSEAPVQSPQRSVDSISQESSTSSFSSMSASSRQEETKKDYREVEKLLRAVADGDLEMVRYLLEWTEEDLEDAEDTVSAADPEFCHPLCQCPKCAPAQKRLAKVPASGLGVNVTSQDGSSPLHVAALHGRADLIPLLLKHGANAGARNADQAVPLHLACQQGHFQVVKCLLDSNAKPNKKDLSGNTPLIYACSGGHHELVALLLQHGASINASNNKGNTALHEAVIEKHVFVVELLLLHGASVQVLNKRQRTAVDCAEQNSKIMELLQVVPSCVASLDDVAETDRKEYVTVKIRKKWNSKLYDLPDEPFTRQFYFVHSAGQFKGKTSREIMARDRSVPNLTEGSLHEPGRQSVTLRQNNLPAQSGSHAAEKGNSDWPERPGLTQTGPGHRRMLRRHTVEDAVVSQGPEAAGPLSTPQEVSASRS

| Variant | effect of a mutation on the interaction |
| --- | --- |
| MAILFAVVARGTTILAKHAWCGGNFLEVTEQILAKIPSENNKLTYSHGNYLFHYICQDRIVYLCITDDAFFRDRAFSFLNEVKKRFQTTYGSRAQTALPYAMNSEFSSVLAAQLKHHSENKSLDKVMETQAQVDELKGIMVRNIDLVAQRGERLELLIDKTENLVDSSVTFKTTSRNLARAMCMKNIKLTIIIIIVSIVFIYIIVSLLCGGFTWPNCVKK [D69A;E71F;S73D] | disrupting interaction strength |
| MAILFAVVARGTTILAKHAWCGGNFLEVTEQILAKIPSENNKLTYSHGNYLFHYICQDRIVYLCITDDDFEASRAFSFLNEVKKRFQTTYGSRAQTALPYAMNSEFSSVLAAQLKHHSENKSLDKVMETQAQVDELKGIMVRNIDLVAQRGERLELLIDKTENLVDSSVTFKTTSRNLARAMCMKNIKLTIIIIIVSIVFIYIIVSLLCGGFTWPNCVKK [R72A] | disrupting interaction strength |
